Data published in paper PMC3388944.

Target: T1, GST-IE(1-1487) (immediate-early protein IEP, full length) (Equine herpesvirus 1, UniProt P17473 1-1487)
T1 sequence: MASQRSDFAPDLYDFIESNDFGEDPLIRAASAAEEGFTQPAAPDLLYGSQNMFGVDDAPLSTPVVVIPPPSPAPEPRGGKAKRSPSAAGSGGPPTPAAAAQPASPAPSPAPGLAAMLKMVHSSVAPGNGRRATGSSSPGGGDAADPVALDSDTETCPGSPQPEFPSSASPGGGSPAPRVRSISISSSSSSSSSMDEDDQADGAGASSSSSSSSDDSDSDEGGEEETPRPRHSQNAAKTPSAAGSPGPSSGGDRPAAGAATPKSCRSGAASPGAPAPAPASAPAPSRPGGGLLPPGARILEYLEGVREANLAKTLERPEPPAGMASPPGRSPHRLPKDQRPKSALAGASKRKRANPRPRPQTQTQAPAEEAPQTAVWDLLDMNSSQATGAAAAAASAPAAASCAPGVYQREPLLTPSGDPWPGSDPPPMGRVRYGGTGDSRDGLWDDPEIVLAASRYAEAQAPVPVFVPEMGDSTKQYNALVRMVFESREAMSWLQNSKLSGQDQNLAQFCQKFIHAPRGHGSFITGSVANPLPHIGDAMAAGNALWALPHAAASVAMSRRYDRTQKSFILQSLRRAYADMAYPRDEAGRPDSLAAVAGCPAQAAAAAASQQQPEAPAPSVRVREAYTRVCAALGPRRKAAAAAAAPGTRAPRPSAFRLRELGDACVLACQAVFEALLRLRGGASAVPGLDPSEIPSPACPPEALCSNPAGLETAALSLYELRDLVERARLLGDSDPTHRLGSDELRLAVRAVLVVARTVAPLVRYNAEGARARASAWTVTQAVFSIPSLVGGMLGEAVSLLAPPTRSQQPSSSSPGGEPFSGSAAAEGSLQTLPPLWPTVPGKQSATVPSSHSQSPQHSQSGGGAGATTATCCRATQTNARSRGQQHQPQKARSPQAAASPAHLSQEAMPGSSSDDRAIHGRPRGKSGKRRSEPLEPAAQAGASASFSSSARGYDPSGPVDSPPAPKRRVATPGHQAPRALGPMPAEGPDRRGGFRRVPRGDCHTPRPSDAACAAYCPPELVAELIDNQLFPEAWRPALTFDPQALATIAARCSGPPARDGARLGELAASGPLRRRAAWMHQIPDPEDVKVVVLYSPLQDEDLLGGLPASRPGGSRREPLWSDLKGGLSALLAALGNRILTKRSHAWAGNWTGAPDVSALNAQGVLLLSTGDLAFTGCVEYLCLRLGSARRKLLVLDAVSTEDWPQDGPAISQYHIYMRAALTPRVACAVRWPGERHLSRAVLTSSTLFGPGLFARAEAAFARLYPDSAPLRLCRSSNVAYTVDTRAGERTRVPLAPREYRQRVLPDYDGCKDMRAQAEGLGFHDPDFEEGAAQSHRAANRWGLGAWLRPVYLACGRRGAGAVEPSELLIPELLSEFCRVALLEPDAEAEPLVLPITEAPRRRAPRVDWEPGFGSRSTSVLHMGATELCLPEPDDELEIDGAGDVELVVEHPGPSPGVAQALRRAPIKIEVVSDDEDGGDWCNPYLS
Test: EMSA

B1: wtIEBS probe (IE promoter -16 to +22) (dsDNA)
DNA 1: TTGCTTACCCATCGTAGCATCGCGGACTAGAGAGCCTT
DNA 2: TTAAGGCTCTCTAGTCCGCGATGCTACGATGGGTAAGC
**Q.** Does B1 bind?
**A.** binds
